Measurements published in PMC13544220, “Glycemic and bodyweight effects of GIPR coding variation reflect differences in surface expression and intrinsic functional impairment” (Science Advances, 2026).

Key:
Type in all cases: cell-based, human
[1] = tested on: wild-type and variant SNAP-GIPR; test: Surface SNAP-GIPR expression (SNAP-tag labelling) in AD293 cells; conditions: for AD293 Surface: Fig S3E, mean; for Surface SNAP-GIPR expression: sheet Fig 1C;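 as to all read-outs here: scaled to the experimental average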
In short: (§1)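 Read-out: whole-cell fluorescence of surface-only SNAP label (Alexa Fluor 647, 500 nM, 10 min, RT), wide-field 20X, several FOVs per well. Flat-field corrected, phase-contrast masked, nontransfected-well signal subtracted; normalized to experiment mean or wild-type.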

[2] = tested on: wild-type and variant SNAP-GIPR; test: Surface SNAP-GIPR expression (SNAP-tag labelling) in INS-1 cells; conditions: Fig 4G; Mean
In short: as §1

[3] = tested on: wild-type and variant SNAP-GIPR; test: Single-concentration GIP cAMP response by HTRF in AD293 cells; conditions: Fig S3F, HTRF, mean;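 also: ratio to experiment-wide average response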
Procedure: (§2) All variants were tested in parallel on each occasion to control for transfection efficiency differences between experiments.

[4] = tested on: wild-type and variant SNAP-GIPR; test: Single-concentration GIP cAMP response by HTRF in INS-1 cells; conditions: Fig S3E, mean
Procedure: as §2

[5] = tested on: wild-type and variant SNAP-GIPR; test: cADDis cAMP imaging in AD293 cells, ensemble, expression-matched and per decile; conditions: Fig S3F, cADDis, mean;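 also: Ensemble cells as % of IBMX/FSK response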
In short: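 AD293 cells reverse-transfected with wild-type or variant SNAP-GIPR plus cADDis Green Up sensor, variants run in parallel. After 24 h, surface receptor labelled with SNAP-Surface Alexa Fluor 647 (500 nM); single-cell cADDis fluorescence imaged at 37 °C in KRBH, 6 mM glucose, 0.1% BSA. Responses given ensemble, expression-matched by wild-type deciles, or per own decile.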

[6] = tested on: wild-type and variant SNAP-GIPR; test: Constitutive and agonist-mediated internalization, reversible SNAP-tag labelling, AD293 cells; design: key to Internalisation, Vehicle / Internalisation, +GIP / Internalisation, GIP-only: % internalization: residual fluorescence after Mesna vs pre-Mesna; Surface expression: unit not given here; conditions: Mean
In short: (§3)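 Percentage internalization is read as the fraction of specific SNAP fluorescence that survives Mesna stripping, compared with the image taken before Mesna. Wells are imaged in TNE buffer at pH 8.6 and again after 10 min.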

[7] = tested on: wild-type and variant SNAP-GIPR; test: Constitutive and agonist-mediated internalization, reversible SNAP-tag labelling, INS-1 cells; design: key to Internalisation, GIP-only / Internalisation, Vehicle / Internalisation, +GIP: % internalization: residual fluorescence after Mesna vs pre-Mesna; conditions: Mean
In short: as §3

B1: R341P (protein, UniProt P48546 22-466, looked up, variant R341P)
Gastric inhibitory …: RAETGSKGQTAGELYQRWERYRRECQETLAAAEPPSGLACNGSFDMYVCWDYAAPNATARASCPWYLPWHHHVAAGFVLRQCGSDGQWGLWRDHTQCENPEKNEAFLDQRLILERLQVMYTVGYSLSLATLLLALLILSLFRRLHCTRNYIHINLFTSFMLRAAAILSRDRLLPRPGPYLGDQALALWNQALAACRTAQIVTQYCVGANYTWLLVEGVYLHSLLVLVGGSEEGHFRYYLLLGWGAPALFVIPWVIVRYLYENTQCWERNEVKAIWWIIRTPILMTILINFLIFIRILGILLSKLRTRQMRCRDYRLRLAPSTLTLVPLLGVHEVVFAPVTEEQARGALRFAKLGFEIFLSSFQGFLVSVLYCFINKEVQSEIRRGWHHCRLRRSLGEEQRQLPERAFRALPSGSGPGEVPTSRGLSSGTLPGPGNEASRELESYC
AD293 Surface ([1]; column repeated, paired with cAMP 100 nM): 0.2494 | AD293 Surface ([1]; paired with cAMP 100 pM): 0.2494 | Surface SNAP-GIPR expression ([1]; replicate 1): 0.3004 | Surface SNAP-GIPR expression ([1]; replicate 2): 0.416 | Surface SNAP-GIPR expression ([1]; replicate 3): 0.1222 | Surface SNAP-GIPR expression ([1]; replicate 4): 0.3179 | Surface SNAP-GIPR expression ([1]; replicate 5): 0.375 | Surface SNAP-GIPR expression ([1]; replicate 6): 0.2191 | Surface SNAP-GIPR expression ([1]; replicate 7): 0.3629 | Surface SNAP-GIPR expression ([1]; replicate 8): 0.2975 | Surface SNAP-GIPR expression ([1]; replicate 9): 0.196 | Surface SNAP-GIPR expression ([1]; replicate 10): 0.2642 | Surface SNAP-GIPR expression ([1]; replicate 11): 0.31 | Surface SNAP-GIPR expression ([1]; replicate 12): 0.2856 | Surface SNAP-GIPR expression ([1]; replicate 13): 0.6221 | Surface SNAP-GIPR expression ([1]; replicate 14): 0.2061 | Surface SNAP-GIPR expression ([1]; replicate 15): 0.2357 | Surface SNAP-GIPR expression ([1]; replicate 16): 0.2383 | Surface SNAP-GIPR expression ([1]; replicate 17): 0.211 | Surface SNAP-GIPR expression ([1]; replicate 18): 0.144 | Surface SNAP-GIPR expression ([1]; replicate 19): 0.3559 | Surface SNAP-GIPR expression ([1]; replicate 20): 0.2316 | Surface SNAP-GIPR expression ([1]; replicate 21): 0.2368 | Surface SNAP-GIPR expression ([1]; replicate 22): 0.1783 | Surface SNAP-GIPR expression ([1]; replicate 23): 0.2272 | Surface SNAP-GIPR expression ([1]; replicate 24): 0.2138 | Surface SNAP-GIPR expression ([1]; replicate 25): 0.2383 | Surface SNAP-GIPR expression ([1]; replicate 26): 0.2262 | Surface SNAP-GIPR expression ([1]; replicate 27): 0.2274 | Surface SNAP-GIPR expression ([1]; replicate 28): 0.2002 | Surface SNAP-GIPR expression ([1]; replicate 29): 0.197 | Surface SNAP-GIPR expression ([1]; replicate 30): 0.3017 | Surface SNAP-GIPR expression ([1]; replicate 31): 0.1334 | Surface SNAP-GIPR expression ([1]; replicate 32): 0.2186 | Surface SNAP-GIPR expression ([1]; replicate 33): 0.2522 | Surface SNAP-GIPR expression ([1]; replicate 34): 0.2282 | Surface SNAP-GIPR expression ([1]; replicate 35): 0.2532 | Surface SNAP-GIPR expression ([1]; replicate 36): 0.1015 | Surface SNAP-GIPR expression ([1]; replicate 37): 0.1446 | Surface SNAP-GIPR expression ([1]; replicate 38): 0.2212 | Surface SNAP-GIPR expression ([1]; replicate 39): 0.2317 | Surface SNAP-GIPR expression ([1]; replicate 40): 0.2075 | Surface SNAP-GIPR expression ([1]; replicate 41): 0.2741 | Surface expression [2]: 0.2942 | AD293 100 pM HTRF ([3]; AD293, 100 pM): 0.001435 | AD293 100 nM HTRF ([3]; AD293, 100 nM): 0.1915 | INS-1 cAMP (100 nM) [4]: -0.2249 | AD293 100 pM cADDis ([5]; AD293, 100 pM): 0.6137 | AD293 100 nM cADDis ([5]; AD293, 100 nM): 9.179 | +GIP internalisation (100 nM) ([6]; Fig 4E, GIP 100 nM): 0.1278 | GIP-specific internalisation (100 nM) ([6]; Fig 4E, GIP 100 nM): 0.02136 | Constitutive internalisation (100 nM) ([6]; Fig 4E): 0.1065 | Surface expression ([6]; Fig 4E): 0.1733 | Internalisation, +GIP ([6]; Fig S4C, AD293): 72.1567 | Internalisation, GIP-only ([6]; Fig S4C, AD293): 15.7264 | Internalisation, Vehicle ([6]; Fig S4C, AD293): 56.4303 | +GIP internalisation (100 nM) ([7]; Fig 4G, GIP 100 nM): 0.1423 | GIP-specific internalisation (100 nM) ([7]; Fig 4G, GIP 100 nM): 0.02008 | Constitutive internalisation (100 nM) ([7]; Fig 4G): 0.1222 | Internalisation, +GIP ([7]; Fig S4C, INS-1): 48.645 | Internalisation, GIP-only ([7]; Fig S4C, INS-1): 6.527 | Internalisation, Vehicle ([7]; Fig S4C, INS-1): 42.1183
